Data from patent US20050191626, “Method for forming a stable complex comprising a transcription product and translation product of a dna encoding a desired polypeptide, a nucleic acid construct used for the method, a complex formed by the method, and screening of a functional protein and mrna or dna encoding the protein using the …” (published 2005).

B1: (Apt)3 three tandem Tat aptamers via A6 linkers (ssRNA)
RNA: AAAAAACGAAGCUUGAUCCCGUUUGCCGGUCGAUCGCUUCGAAAAAACGAAGCUUGAUCCCGUUUGCCGGUCGAUCGCUUCGAAAAAACGAAGCUUGAUCCCGUUUGCCGGUCGAUCGCUUCG
B2: (Apt)2 two tandem Tat aptamers via A6 linker (ssRNA)
RNA: AAAAAACGAAGCUUGAUCCCGUUUGCCGGUCGAUCGCUUCGAAAAAACGAAGCUUGAUCCCGUUUGCCGGUCGAUCGCUUCG

How the values were obtained:
[1] = molecular target: T1, DHFR-(RE)1 (DHFR fused to one HIV Tat-derived RE peptide) (UniProt P04608); assay: EMSA; details: apparent Kd; 10 mM Tris-HCl pH 8.0, 70 mM NaCl, 2 mM EDTA, 0.1% NP-40, 40 nM tRNA, 30 C
T1 sequence: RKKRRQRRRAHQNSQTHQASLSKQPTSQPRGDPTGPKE

[2] = molecular target: T2, DHFR-(RE)3 (DHFR fused to three tandem Tat-derived RE peptides) (UniProt P04608); assay: EMSA; details: apparent Kd; 10 mM Tris-HCl pH 8.0, 70 mM NaCl, 2 mM EDTA, 0.1% NP-40, 40 nM tRNA, 30 C
T2 sequence: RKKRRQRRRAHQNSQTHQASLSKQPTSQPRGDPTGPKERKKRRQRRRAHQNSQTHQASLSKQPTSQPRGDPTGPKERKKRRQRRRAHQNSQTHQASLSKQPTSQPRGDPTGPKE

[3] = molecular target: T3, DHFR-(RE)2 (DHFR fused to two tandem Tat-derived RE peptides) (UniProt P04608); assay: EMSA; details: apparent Kd; 10 mM Tris-HCl pH 8.0, 70 mM NaCl, 2 mM EDTA, 0.1% NP-40, 40 nM tRNA, 30 C
T3 sequence: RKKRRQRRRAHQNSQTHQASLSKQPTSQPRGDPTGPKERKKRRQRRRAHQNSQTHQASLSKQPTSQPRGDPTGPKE

[4] = molecular target: dihydrofolate reductase (DHFR), wild type (UniProt P0ABQ4 P0ABQ4:1-159); assay: EMSA; no mobility change with increasing wild-type DHFR; details: tags: poly-His (pET30a); label: 5'-32P

| Molecule | binding result [4] | also measured |
| --- | --- | --- |
| AAAAAACGAAGCUUGAUCCCGUUUGCCGGUCGAUCGCUUCG [(Apt)1 Tat aptamer] |  | Kd [1]: < 24 nM |
| AAAAAACGAAGCUUGAUCCCGUUUGCCGGUCGAUCGCUUCGAAAAAACGAAGCUUGAUCCCGUUUGCCGGUCGAUCGCUUCGAAAAAACGAAGCUUGAUCCCGUUUGCCGGUCGAUCGCUUCG [(Apt)3 three tandem Tat aptamers via A6 linkers] |  | Kd [2]: < 0.016 nM |
| AAAAAACGAAGCUUGAUCCCGUUUGCCGGUCGAUCGCUUCGAAAAAACGAAGCUUGAUCCCGUUUGCCGGUCGAUCGCUUCG [(Apt)2 two tandem Tat aptamers via A6 linker] |  | Kd [3]: < 0.2 nM |
| B1 | no binding |  |
| AAAAAACGAAGCUUGAUCCCGUUUGCCGGUCGAUCGCUUCG (ssRNA) [(Apt)1 Tat aptamer] | no binding |  |
| B2 | no binding |  |
